Assay results reported in US20160304571.

B1: BAP1 (protein)
chain: MNKGWLELESDPGLFTLLVEDFGVKGVQVEEIYDLQSKCQGPVYGFIFLFKWIEERRSRRKVSTLVDDTSVIDDDIVNNMFFAHQLIPNSCATHALLSVLLNCSSVDLGPTLSRMKDFTKGFSPESKGYAIGNAPELAKAHNSHARPEPRHLPEKQNGLSAVRTMEAFHFVSYVPITGRLFELDGLKVYPIDHGPWGEDEEWTDKARRVIMERIGLATAGEPYHDIRFNLMAVVPDRRIKYEARLHVLKVNRQTVLEALQQLIRVTQPELIQTHKSQESQLPEESKSASNKSPLVLEANRAPAASEGNHTDGAEEAAGSCAQAPSHSPPNKPKLVVKPPGSSLNGVHPNPTPIVQRLPAFLDNHNYAKSPMQEEEDLAAGVGRSRVPVRPPQQYSDDEDDYEDDEEDDVQNTNSALRYKGKGTGKPGALSGSADGQLSVLQPNTINVLAEKLKESQKDLSIPLSIKTSSGAGSPAVAVPTHSQPSPTPSNESTDTASEIGSAFNSPLRSPIRSANPTRPSSPVTSHISKVLFGEDDSLLRVDCIRYNRAVRDLGPVISTGLLHLAEDGVLSPLALTEGGKGSSPSIRPIQGSQGSSSPVEKEVVEATDSREKTGMVRPGEPLSGEKYSPKELLALLKCVEAEIANYEACLKEEVEKRKKFKIDDQRRTHNYDEFICTFISMLAQEGMLANLVEQNISVRRRQGVSIGRLHKQRKPDRRKRSRPYKAKRQ
B2: USP5 (protein)
chain: MAELSEEALLSVLPTIRVPKAGDRVHKDECAFSFDTPESEGGLYICMNTFLGFGKQYVERHFNKTGQRVYLHLRRTRRPKEEDPATGTGDPPRKKPTRLAIGVEGGFDLSEEKFELDEDVKIVILPDYLEIARDGLGGLPDIVRDRVTSAVEALLSADSASRKQEVQAWDGEVRQVSKHAFSLKQLDNPARIPPCGWKCSKCDMRENLWLNLTDGSILCGRRYFDGSGGNNHAVEHYRETGYPLAVKLGTITPDGADVYSYDEDDMVLDPSLAEHLSHFGIDMLKMQKTDKTMTELEIDMNQRIGEWELIQESGVPLKPLFGPGYTGIRNLGNSCYLNSVVQVLFSIPDFQRKYVDKLEKIFQNAPTDPTQDFSTQVAKLGHGLLSGEYSKPVPESGDGERVPEQKEVQDGIAPRMFKALIGKGHPEFSTNRQQDAQEFFLHLINMVERNCRSSENPNEVFRFLVEEKIKCLATEKVKYTQRVDYIMQLPVPMDAALNKEELLEYEEKKRQAEEEKMALPELVRAQVPFSSCLEAYGAPEQVDDFWSTALQAKSVAVKTTRFASFPDYLVIQIKKFTFGLDWVPKKLDVSIEMPEELDISQLRGTGLQPGEEELPDIAPPLVTPDEPKGSLGFYGNEDEDSFCSPHFSSPTSPMLDESVIIQLVEMGFPMDACRKAVYYTGNSGAEAAMNWVMSHMDDPDFANPLILPGSSGPGSTSAAADPPPEDCVTTIVSMGFSRDQALKALRATNNSLERAVDWIFSHIDDLDAEAAMDISEGRSAADSISESVPVGPKVRDGPGKYQLFAFISHMGTSTMCGHYVCHIKKEGRWVIYNDQKVCASEKPPKDLGYIYFYQRVAS
B3: ubiquitin C-terminal hydrolase-L3 (UCH-L3) (protein)
chain: MEGQRWLPLEANPEVTNQFLKQLGLHPNWQFVDVYGMDPELLSMVPRPVCAVLLLFPITEKYEVFRTEEEEKIKSQGQDVTSSVYFMKQTISNACGTIGLIHAIANNKDKMHFESGSTLKKFLEESVSMSPEERARYLENYDAIRVTHETSAHEGQTEAPSIDEKVDLHFIALVHVDGHLYELDGRKPFPINHGETSDETLLEDAIEVCKKFMERDPDELRFNAIALSAA
B4: Cezanne (protein)
chain: PPSFSEGSGGSRTPEKGFSDREPTRPPRPILQRQDDIVQEKRLSRGISHASSSIVSLARSHVSSNGGGGGSNEHPLEMPICAFQLPDLTVYNEDFRSFIERDLIEQSMLVALEQAGRLNWWVSVDPTSQRLLPLATTGDGNCLLHAASLGMWGFHDRDLMLRKALYALMEKGVEKEALKRRWRWQQTQQNKESGLVYTEDEWQKEWNELIKLASSEPRMHLGTNGANCGGVESSEEPVYESLEEFHVFVLAHVLRRPIVVVADTMLRDSGGEAFAPIPFGGIYLPLEVPASQCHRSPLVLAYDQAHFSALVSMEQKENTKEQAVIPLTDSEYKLLPLHFAVDPGKGWEWGKDDSDNVRLASVILSLEVKLHLLHSYMNVKWIPLSSDAQAPLAQ
B5: USP21 (protein)
chain: SDDKMAHHTLLLGSGHVGLRNLGNTCFLNAVLQCLSSTRPLRDFCLRRDFRQEVPGGGRAQELTEAFADVIGALWHPDSCEAVNPTRFRAVFQKYVPSFSGYSQQDAQEFLKLLMERLHLEINRRGRRAPPILANGPVPSPPRRGGALLEEPELSDDDRANLMWKRYLEREDSKIVDLFVGQLKSCLKCQACGYRSTTFEVFCDLSLPIPKKGFAGGKVSLRDCFNLFTKEEELESENAPVCDRCRQKTRSTKKLTVQRFPRILVLHLNRFSASRGSIKKSSVGVDFPLQRLSLGDFASDKAGSPVYQLYALCNHSGSVHYGHYTALCRCQTGWHVYNDSRVSPVSENQVASSEGYVLFYQLMQEPPRCL
B6: A20 (protein)
chain: MAEQVLPQALYLSNMRKAVKIRERTPEDIFKPTNGIIHHFKTMHRYTLEMFRTCQFCPQFREIIHKALIDRNIQATLESQKKLNWCREVRKLVALKTNGDGNCLMHATSQYMWGVQDTDLVLRKALFSTLKETDTRNFKFRWQLESLKSQEFVETGLCYDTRNWNDEWDNLIKMASTDTPMARSGLQYNSLEEIHIFVLCNILRRPIIVISDKMLRSLESGSNFAPLKVGGIYLPLHWPAQECYRYPIVLGYDSHHFVPLVTLKDSGPEIRAVPLVNRDRGRFEDLKVHFLTDPENEMKEKLLKEYLMVIEIPVQGWDHGTTHLINAAKLDEANLPKEINLVDDYFELVQHEYKKWQENSEQGRRE
B7: CYLD (protein)
chain: GLEIMIGKKKGIQGHYNSCYLDSTLFCLFAFSSVLDTVLLRPKEKNDVEYYSETQELLRTEIVNPLRIYGYVCATKIMKLRKILEKVEAASGFTSEEKDPEEFLNILFHHILRVEPLLKIRSAGQKVQDCYFYQIFMEKNEKVGVPTIQQLLEWSFINSNLKFAEAPSCLIIQMPRFGKDFKLFKKIFPSLELNITDLLEDTPRQCRICGGLAMYECRECYDDPDISAGKIKQFCKTCNTQVHLHPKRLNHKYNPVSLPKDLPDWDWRHGCIPCQNMELFAVLCIETSHYVAFVKYGKDDSAWLFFDSMADRDGGQNGFNIPQVTPCPEVGEYLKMSLEDLHSLDSRRIQGCARRLLCDAYMCMYQSPTMSLYK

Target: Lys29-linked diubiquitin, P0CG48
Sequence (P0CG48 whole entry, looked up): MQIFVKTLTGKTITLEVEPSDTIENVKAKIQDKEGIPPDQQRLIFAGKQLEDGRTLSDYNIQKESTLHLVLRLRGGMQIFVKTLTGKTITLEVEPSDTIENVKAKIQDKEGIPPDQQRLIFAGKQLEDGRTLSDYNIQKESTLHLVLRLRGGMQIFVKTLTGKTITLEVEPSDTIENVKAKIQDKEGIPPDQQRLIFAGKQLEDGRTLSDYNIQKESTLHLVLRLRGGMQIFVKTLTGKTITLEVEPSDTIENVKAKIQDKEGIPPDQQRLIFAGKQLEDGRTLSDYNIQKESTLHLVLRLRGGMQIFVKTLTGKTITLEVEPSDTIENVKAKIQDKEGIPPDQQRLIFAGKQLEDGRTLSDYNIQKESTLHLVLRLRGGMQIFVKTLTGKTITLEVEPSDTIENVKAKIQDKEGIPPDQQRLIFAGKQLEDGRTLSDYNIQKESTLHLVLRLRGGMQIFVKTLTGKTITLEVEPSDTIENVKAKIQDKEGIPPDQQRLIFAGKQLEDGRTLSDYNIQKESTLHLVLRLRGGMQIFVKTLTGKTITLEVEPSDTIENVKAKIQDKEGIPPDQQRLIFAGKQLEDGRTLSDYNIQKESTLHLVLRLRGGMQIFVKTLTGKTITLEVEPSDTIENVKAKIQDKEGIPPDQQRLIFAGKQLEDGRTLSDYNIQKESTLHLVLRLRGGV

Row | Protein | cleavage in in vitro deubiquitinase assay (SDS-PAGE, silver stain)
1 | B1 | failed to cleave
2 | B2 | rapidly cleaves all chains types tested
3 | B3 | failed to cleave
4 | B4 | also did not cleave Lys29 linkages
5 | B5 | rapidly cleaves all chain types tested
6 | B6 | also did not cleave Lys29 linkages
7 | B7 | shows little or no activity against the Lys6 and Lys29 linkage

Target: Lys6-linked diubiquitin, P0CG48
Sequence (P0CG48 whole entry, looked up): as above

Row | Protein | cleavage in in vitro deubiquitinase assay (SDS-PAGE, silver stain)
8 | B1 | failed to cleave
9 | B2 | rapidly cleaves all chains types tested
10 | B3 | failed to cleave
11 | B4 | did not cleave Lys6-linked diubiquitin
12 | B5 | rapidly cleaves all chain types tested
13 | B6 | did not cleave Lys6-linked diubiquitin
14 | B7 | shows little or no activity against the Lys6 and Lys29 linkage

Target: Lys63-linked diubiquitin (enzymatically assembled), P0CG48
Sequence (P0CG48 whole entry, looked up): as above

Row | Protein | cleavage in in vitro deubiquitinase assay (SDS-PAGE, silver stain)
15 | B2 | rapidly cleaves all chains types tested
16 | B5 | rapidly cleaves all chain types tested
17 | B7 | efficiently cleaves its preferred Lys63 linkage
